Laboratory results from patent publication US20240101674A1 (OTTIMO PHARMA, published 2024).

Legend:
[1] = target: T1, cynomolgus monkey PD1 human Fc tagged recombinant protein (cynomolgus monkey, UniProt Q15116 25-170 (human entry), limits assumed); assay: direct titration ELISA, IgG1 null on coated PD1-Fc (FIG. 3A)
T1 construct: also called cyno PD1-Fc; cyno PD1; not shown: human Fc tag
T1 chain: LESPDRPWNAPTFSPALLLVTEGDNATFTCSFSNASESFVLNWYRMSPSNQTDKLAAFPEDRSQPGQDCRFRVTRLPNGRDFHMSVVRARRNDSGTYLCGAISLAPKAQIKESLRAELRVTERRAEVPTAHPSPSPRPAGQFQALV
Procedure: (§1) Binding and cross-reactivity of the lead panel to the recombinant proteins was initially assessed by binding ELISA. The human PD1 human Fc tagged recombinant protein and the cynomolgus monkey PD1 human Fc tagged recombinant protein were coated to the surface of MaxiSorp™ flat-bottom 96 well plate at 1 μg/ml. The purified Fab or IgG samples were titrated in two fold serial dilutions starting from 500 nM to 0.98 nM and allowed to bind to the coated antigens. The Fabs were detected using mouse anti-c-myc antibody followed by donkey anti-mouse IgG conjugated to horseradish peroxidase. The IgGs were detected using the mouse anti-human IgG conjugated to horseradish peroxidase. Binding signals were visualized with 3,3′,5,5′-Tetramethylbenzidine Substrate Solution (TMB) and the absorbance measured at 450 nm.

[2] = target: T2, human PD1 human Fc tagged recombinant protein (human, UniProt Q15116 25-170); assay: as above
T2 construct: also called human PD1-Fc; hu PD1; not shown: human Fc tag
T2 sequence (Q15116 25-170 limits assumed): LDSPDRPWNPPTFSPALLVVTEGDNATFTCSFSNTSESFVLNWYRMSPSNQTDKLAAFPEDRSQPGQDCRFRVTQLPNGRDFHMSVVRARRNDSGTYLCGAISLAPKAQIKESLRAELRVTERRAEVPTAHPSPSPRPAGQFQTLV
Procedure: as §1

rhesus VEGFR2 protein = target: T3, rhesus VEGFR2 protein (rhesus monkey); assay: direct titration ELISA, IgG1 null on VEGFR2 protein (FIG. 3B)
T3 construct: Recombinant protein used in ELISA; also called rhesus monkey VEGFR2; rh VEGFR2
T3 chain: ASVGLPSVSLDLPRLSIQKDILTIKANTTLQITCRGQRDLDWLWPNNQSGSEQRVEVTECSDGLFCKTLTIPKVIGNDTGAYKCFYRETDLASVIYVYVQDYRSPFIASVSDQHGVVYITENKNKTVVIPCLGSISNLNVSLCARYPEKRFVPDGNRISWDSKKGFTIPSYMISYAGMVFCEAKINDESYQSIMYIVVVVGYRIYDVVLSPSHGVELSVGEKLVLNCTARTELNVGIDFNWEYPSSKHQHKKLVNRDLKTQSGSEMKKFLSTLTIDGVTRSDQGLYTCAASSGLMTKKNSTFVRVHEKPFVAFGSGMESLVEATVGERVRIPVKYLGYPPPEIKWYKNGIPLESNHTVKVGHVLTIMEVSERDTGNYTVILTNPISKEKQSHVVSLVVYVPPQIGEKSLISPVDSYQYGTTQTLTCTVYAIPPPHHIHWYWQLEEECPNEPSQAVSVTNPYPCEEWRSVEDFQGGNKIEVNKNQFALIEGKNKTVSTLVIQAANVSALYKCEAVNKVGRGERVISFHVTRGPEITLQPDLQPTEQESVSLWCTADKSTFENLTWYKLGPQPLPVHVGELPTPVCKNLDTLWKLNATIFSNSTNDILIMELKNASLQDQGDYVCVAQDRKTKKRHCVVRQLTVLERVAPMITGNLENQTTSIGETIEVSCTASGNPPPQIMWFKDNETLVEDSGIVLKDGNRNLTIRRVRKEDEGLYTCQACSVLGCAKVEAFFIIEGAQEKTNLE

human VEGFR2 protein = target: T4, human VEGFR2 protein (human, UniProt P35968 20-764); assay: as above
T4 construct: Recombinant protein used in ELISA; also called hu VEGFR2; KDR

Measured: binding result

B1: MAB02 IgG1 null (antibody, V domains shown)
VH: EVQLVESGGGLVQPGGSLRLSCAASGFTFSSYMMSWVRQAPGKGLEWVATISGGGANTYYPDSVKGRFTISRDNAKNSLYLQMNSLRAEDTAVYYCARQLYYFDYWGQGTTVTVSS
VL: DIQMTQSPSSLSASVGDRVTITCLASQPLGIWLSWYQQKPGKAPKLLIYTATSLADGVPSRFSGSGSGTDFTLTISSLQPEDFATYYCQQVAELPFGFGGGTKVEIK
notes: Human IgG1 null format (L234A, L235A, G237A) with human C kappa; only variable domains are tied to the clone
binds: [1] | [2]

B2: MAB06 IgG1 null (antibody, V domains shown)
VH: EVQLVESGGGLVQPGGSLRLSCAASGFTFSSYMMSWVRQAPGKGLEWVATISGGGANTYYPDSVKGRFTISRDNAKNSLYLQMNSLRAEDTAVYYCARQLYYFDYWGQGTTVTVSS
VL: DIQMTQSPSSLSASVGDRVTITCLASQESGIWLSWYQQKPGKAPKLLIYTATSLADGVPSRFSGSGSGTDFTLTISSLQPEDFATYYCQQVSVTPFTFGGGTKVEIK
notes: as for B1
binds: all assays above

B3: hMAb005 IgG1 null (antibody, V domains shown)
VH: EVQLVESGGGLVQPGGSLRLSCAASGFTFSSYMMSWVRQAPGKGLEWVATISGGGANTYYPDSVKGRFTISRDNAKNSLYLQMNSLRAEDTAVYYCARQLYYFDYWGQGTTVTVSS
VL: DIQMTQSPSSLSASVGDRVTITCLASQTIGTWLTWYQQKPGKAPKLLIYTATSLADGVPSRFSGSGSGTDFTLTISSLQPEDFATYYCQQVYSIPWTFGGGTKVEIK
notes: Tested as human IgG1 null (L234A, L235A, G237A) with human C kappa; also called humanized MAb005
binds: [1] | [2]

B4: MAB04 IgG1 null (antibody, V domains shown)
VH: EVQLVESGGGLVQPGGSLRLSCAASGFTFSSYMMSWVRQAPGKGLEWVATISGGGANTYYPDSVKGRFTISRDNAKNSLYLQMNSLRAEDTAVYYCARQLYYFDYWGQGTTVTVSS
VL: DIQMTQSPSSLSASVGDRVTITCLASQGIGPWLSWYQQKPGKAPKLLIYTATSLADGVPSRFSGSGSGTDFTLTISSLQPEDFATYYCQQVSVTPFTFGGGTKVEIK
notes: as for B1
binds: all assays above

B5: MAB02B03 IgG1 null (antibody, V domains shown)
VH: EVQLVESGGGLVQPGGSLRLSCAASGFTFSSYMMSWVRQAPGKGLEWVATISGGGANTYYPDSVKGRFTISRDNAKNSLYLQMNSLRAEDTAVYYCARQLYYFDYWGQGTTVTVSS
VL: DIQMTQSPSSLSASVGDRVTITCLASQPLGIWLSWYQQKPGKAPKLLIYTATSLADGVPSRFSGSGSGTDFTLTISSLQPEDFATYYCQQVYSIPWTFGGGTKVEIK
notes: as for B1
binds: [1] | rhesus VEGFR2 protein | human VEGFR2 protein

B6: MAB01 IgG1 null (antibody, V domains shown)
VH: EVQLVESGGGLVQPGGSLRLSCAASGFTFSSYMMSWVRQAPGKGLEWVATISGGGANTYYPDSVKGRFTISRDNAKNSLYLQMNSLRAEDTAVYYCARQLYYFDYWGQGTTVTVSS
VL: DIQMTQSPSSLSASVGDRVTITCLASQGIGPWLSWYQQKPGKAPKLLIYTATSLADGVPSRFSGSGSGTDFTLTISSLQPEDFATYYCQQVAELPFGFGGGTKVEIK
notes: as for B1
binds: all assays above

B7: MAB02D08 IgG1 null (antibody, V domains shown)
VH: EVQLVESGGGLVQPGGSLRLSCAASGFTFSSYMMSWVRQAPGKGLEWVATISGGGANTYYPDSVKGRFTISRDNAKNSLYLQMNSLRAEDTAVYYCARQLYYFDYWGQGTTVTVSS
VL: DIQMTQSPSSLSASVGDRVTITCLASQESGIWLSWYQQKPGKAPKLLIYTATSLADGVPSRFSGSGSGTDFTLTISSLQPEDFATYYCQQVYSIPWTFGGGTKVEIK
notes: as for B1
binds: [1] | rhesus VEGFR2 protein | human VEGFR2 protein

B8: MAB05 IgG1 null (antibody, V domains shown)
VH: EVQLVESGGGLVQPGGSLRLSCAASGFTFSSYMMSWVRQAPGKGLEWVATISGGGANTYYPDSVKGRFTISRDNAKNSLYLQMNSLRAEDTAVYYCARQLYYFDYWGQGTTVTVSS
VL: DIQMTQSPSSLSASVGDRVTITCLASQPLGIWLSWYQQKPGKAPKLLIYTATSLADGVPSRFSGSGSGTDFTLTISSLQPEDFATYYCQQVSVTPFTFGGGTKVEIK
notes: as for B1
binds: all assays above

B9: MAB02A03 IgG1 null (antibody, V domains shown)
VH: EVQLVESGGGLVQPGGSLRLSCAASGFTFSSYMMSWVRQAPGKGLEWVATISGGGANTYYPDSVKGRFTISRDNAKNSLYLQMNSLRAEDTAVYYCARQLYYFDYWGQGTTVTVSS
VL: DIQMTQSSSSLSASVGDRVTITCLASQGIGPWLSWYQQKPGKAPKLLIYTATSLADGVPSRFSGSGSGTDFTLTISSLQPEDFATYYCQQVYSIPWTFGGGTKVEIK
notes: as for B1
binds: [1] | rhesus VEGFR2 protein | human VEGFR2 protein

B10: MAB05E08 IgG1 null (antibody, V domains shown)
VH: EVQLVESGGGLVQPGGSLRLSCAASGFTFSSYMMSWVRQAPGKGLEWVATISGGGANTYYPDSVKGRFTISRDNAKNSLYLQMNSLRAEDTAVYYCARQLYYFDYWGQGTTVTVSS
VL: DIQMTQSPSSLSASVGDRVTITCLASQTIGTWLTWYQQKPGKAPKLLIYTATSLADGVPSRFSGSGSGTDFTLTISSLQPEDFATYYCQQVSVTPFTFGGGTKVEIK
notes: as for B1
binds: [1] | rhesus VEGFR2 protein | human VEGFR2 protein

B11: MAB05G03 IgG1 null (antibody, V domains shown)
VH: EVQLVESGGGLVQPGGSLRLSCAASGFTFSSYMMSWVRQAPGKGLEWVATISGGGANTYYPDSVKGRFTISRDNAKNSLYLQMNSLRAEDTAVYYCARQLYYFDYWGQGTTVTVSS
VL: DIQMTQSPSSLSASVGDRVTITCLASQTIGTWLTWYQQKPGKAPKLLIYTATSLADGVPSRFSGSGSGTDFTLTISSLQPEDFATYYCQQVAELPFGFGGGTKVEIK
notes: as for B1
binds: [1] | rhesus VEGFR2 protein | human VEGFR2 protein
